According to PMC3046049 (Science (New York, N.Y.), 2010):

T1: PLC-β3 truncated at residue 886 (UniProt Q01970 1-886)
T1 sequence (looked up): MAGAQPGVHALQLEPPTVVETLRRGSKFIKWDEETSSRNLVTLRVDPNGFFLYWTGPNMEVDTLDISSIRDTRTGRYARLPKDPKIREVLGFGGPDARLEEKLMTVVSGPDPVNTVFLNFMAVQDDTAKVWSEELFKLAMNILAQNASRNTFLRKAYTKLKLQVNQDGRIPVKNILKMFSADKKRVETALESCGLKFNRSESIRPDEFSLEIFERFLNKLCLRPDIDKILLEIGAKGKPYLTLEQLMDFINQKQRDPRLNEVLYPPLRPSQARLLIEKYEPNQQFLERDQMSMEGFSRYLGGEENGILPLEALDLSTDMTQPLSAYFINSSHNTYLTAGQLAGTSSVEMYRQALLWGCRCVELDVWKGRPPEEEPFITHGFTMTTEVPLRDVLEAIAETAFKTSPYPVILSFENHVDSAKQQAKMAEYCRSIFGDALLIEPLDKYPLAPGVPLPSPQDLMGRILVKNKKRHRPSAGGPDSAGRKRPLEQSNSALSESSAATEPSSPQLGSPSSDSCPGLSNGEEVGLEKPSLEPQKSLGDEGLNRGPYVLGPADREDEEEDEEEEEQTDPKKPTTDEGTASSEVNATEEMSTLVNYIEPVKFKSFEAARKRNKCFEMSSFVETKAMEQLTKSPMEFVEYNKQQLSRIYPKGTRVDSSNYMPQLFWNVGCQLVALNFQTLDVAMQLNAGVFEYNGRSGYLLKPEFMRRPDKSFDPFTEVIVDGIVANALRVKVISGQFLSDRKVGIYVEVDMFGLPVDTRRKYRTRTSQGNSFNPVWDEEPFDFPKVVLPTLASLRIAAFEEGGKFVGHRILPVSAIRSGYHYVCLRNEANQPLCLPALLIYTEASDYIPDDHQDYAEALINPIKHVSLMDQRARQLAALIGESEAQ

B1: Gαq (natural protein)
chain: RRELKLLLLGTGESGKSTFIKQMRIIHGSGYSDEDKRGFTKLVYQNIFTAMQAMIRAMDTLKIPYKYEHNKAHAQLVREVDVEKVSAFENPYVDAIKSLWNDPGIQECYDRRREYQLSDSTKYYLNDLDRVADPSYLPTQQDVLRVRVPTTGIIEYPFDLQSVIFRMVDVGGQRSERRKWIHCFENVTSIMFLVALSEYDQVLVESDNENRMEESKALFRTIITYPWFQNSSVILFLNKKDLLEEKIMYSHLVDYFPEYDGPQRDAQAAREFILKMFVDLNPDSDKIIYSHFTCATDTENIRFVFAAVKDTILQLNLKEYNLV

What was measured:
Gαq = target: B1
[1] = target: T1, PLC-β3 truncated at residue 886

| fold lower binding affinity than PLC-β3 (Gαq) [fold] | Kd [1] [nM] | Binder |
| --- | --- | --- |
| 7 | – | PLC-β3(L859A) (enzyme, UniProt Q01970 1-1234, looked up) MAGAQPGVHALQLEPPTVVETLRRGSKFIKWDEETSSRNLVTLRVDPNGFFLYWTGPNMEVDTLDISSIRDTRTGRYARLPKDPKIREVLGFGGPDARLEEKLMTVVSGPDPVNTVFLNFMAVQDDTAKVWSEELFKLAMNILAQNASRNTFLRKAYTKLKLQVNQDGRIPVKNILKMFSADKKRVETALESCGLKFNRSESIRPDEFSLEIFERFLNKLCLRPDIDKILLEIGAKGKPYLTLEQLMDFINQKQRDPRLNEVLYPPLRPSQARLLIEKYEPNQQFLERDQMSMEGFSRYLGGEENGILPLEALDLSTDMTQPLSAYFINSSHNTYLTAGQLAGTSSVEMYRQALLWGCRCVELDVWKGRPPEEEPFITHGFTMTTEVPLRDVLEAIAETAFKTSPYPVILSFENHVDSAKQQAKMAEYCRSIFGDALLIEPLDKYPLAPGVPLPSPQDLMGRILVKNKKRHRPSAGGPDSAGRKRPLEQSNSALSESSAATEPSSPQLGSPSSDSCPGLSNGEEVGLEKPSLEPQKSLGDEGLNRGPYVLGPADREDEEEDEEEEEQTDPKKPTTDEGTASSEVNATEEMSTLVNYIEPVKFKSFEAARKRNKCFEMSSFVETKAMEQLTKSPMEFVEYNKQQLSRIYPKGTRVDSSNYMPQLFWNVGCQLVALNFQTLDVAMQLNAGVFEYNGRSGYLLKPEFMRRPDKSFDPFTEVIVDGIVANALRVKVISGQFLSDRKVGIYVEVDMFGLPVDTRRKYRTRTSQGNSFNPVWDEEPFDFPKVVLPTLASLRIAAFEEGGKFVGHRILPVSAIRSGYHYVCLRNEANQPLCLPALLIYTEASDYIPDDHQDYAEAAINPIKHVSLMDQRARQLAALIGESEAQAGQETCQDTQSQQLGSQPSSNPTPSPLDASPRRPPGPTTSPASTSLSSPGQRDDLIASILSEVAPTPLDELRGHKALVKLRSRQERDLRELRKKHQRKAVTLTRRLLDGLAQAQAEGRCRLRPGALGGAADVEDTKEGEDEAKRYQEFQNRQVQSLLELREAQVDAEAQRRLEHLRQALQRLREVVLDANTTQFKRLKEMNEREKKELQKILDRKRHNSISEAKMRDKHKKEAELTEINRRHITESVNSIRRLEEAQKQRHDRLVAGQQQVLQQLAEEEPKLLAQLAQECQEQRARLPQEIRRSLLGEMPEGLGDGPLVACASNGHAPGSSGHLSGADSESQEENTQL |
| – | ~200 | B1 |
